According to the supplement of paper PMC9112550, “Optimization of the antimicrobial peptide Bac7 by deep mutational scanning” (BMC Biology, 2022):

Test system: Escherichia coli TOP10
Test: shrunken log2 fold change of peptide-encoding DNA abundance (4.5 h post-induction vs induction); higher = less antimicrobial activity (less host growth inhibition)
Conditions: time post-induction: 4.5 h; library: site-saturation at positions 5, 18, 19, 20
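Further: peptides expressed intracellularly from a pBAD plasmid library in pooled LB shake-flask culture, induced with 0.3% L-arabinose, DNA abundance read by NGS, three biological replicates, DESeq2 with apeglm shrinkage.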

Sequence	shrunken log2 fold change
RRIRWRPPRLPRPRPRPLHHPRP	-0.0749
RRIRWRPPRLPRPRPRPATRPRP	0.38
RRIRIRPPRLPRPRPRPCFRPRP	-0.233
RRIRLRPPRLPRPRPRPMGVPRP	-0.0231
RRIRHRPPRLPRPRPRPDMQPRP	-0.106
RRIRCRPPRLPRPRPRPWWIPRP	-0.655
RRIRSRPPRLPRPRPRPEFWPRP	0.281
RRIRSRPPRLPRPRPRPNMYPRP	-0.635
RRIRNRPPRLPRPRPRPYATPRP	-0.145
RRIRERPPRLPRPRPRPGKKPRP	-0.0022
RRIRMRPPRLPRPRPRPGCVPRP	0.967
RRIRVRPPRLPRPRPRPPFMPRP	1.97
RRIRLRPPRLPRPRPRPGRLPRP	0.0389
RRIRTRPPRLPRPRPRPANNPRP	-0.736
RRIRMRPPRLPRPRPRPVAFPRP	0.579
RRIRIRPPRLPRPRPRPHTKPRP	-1.68
RRIRSRPPRLPRPRPRPFHWPRP	-0.108
RRIRSRPPRLPRPRPRPDNQPRP	-0.568
RRIRERPPRLPRPRPRPASKPRP	-0.12
RRIRQRPPRLPRPRPRPVMTPRP	-0.172
RRIRQRPPRLPRPRPRPATFPRP	0.157
RRIRKRPPRLPRPRPRPYFFPRP	0.168

Sequence	shrunken log2 fold change
RRIRLRPPRLPRPRPRPLISPRP	-0.506
RRIRMRPPRLPRPRPRPKDKPRP	1.93
RRIRHRPPRLPRPRPRPQYSPRP	-0.572
RRIRCRPPRLPRPRPRPPRSPRP	0.993
RRIRQRPPRLPRPRPRPLKTPRP	0.0342
RRIRERPPRLPRPRPRPNAWPRP	0.113
RRIRRRPPRLPRPRPRPWNNPRP	-0.173
RRIRKRPPRLPRPRPRPNSRPRP	0.149
RRIRERPPRLPRPRPRPYFVPRP	-0.892
RRIRTRPPRLPRPRPRPRNFPRP	0.172
RRIRWRPPRLPRPRPRPIQTPRP	-0.0178
RRIRVRPPRLPRPRPRPLHEPRP	-0.0936
RRIRCRPPRLPRPRPRPEIPPRP	0.0317
RRIRHRPPRLPRPRPRPFGDPRP	-0.257
RRIRMRPPRLPRPRPRPCQSPRP	0.288
RRIRGRPPRLPRPRPRPEERPRP	0.55
RRIRLRPPRLPRPRPRPLMAPRP	-0.246
RRIRMRPPRLPRPRPRPFEVPRP	-0.0748
RRIRWRPPRLPRPRPRPTRRPRP	0.377
RRIRYRPPRLPRPRPRPGNSPRP	-0.0689
RRIRLRPPRLPRPRPRPFLIPRP	-0.666
RRIRTRPPRLPRPRPRPEYCPRP	-0.189

Sequence	shrunken log2 fold change
RRIRYRPPRLPRPRPRPERYPRP	0.11
RRIRGRPPRLPRPRPRPGTCPRP	0.165
RRIRIRPPRLPRPRPRPINLPRP	-0.146
RRIRWRPPRLPRPRPRPKEQPRP	0.0237
RRIRIRPPRLPRPRPRPDRCPRP	-0.163
RRIRARPPRLPRPRPRPFHQPRP	-0.211
RRIRHRPPRLPRPRPRPPHHPRP	-0.0583
RRIRYRPPRLPRPRPRPAQIPRP	-0.347
RRIRTRPPRLPRPRPRPTFEPRP	-0.0371
RRIRPRPPRLPRPRPRPLSQPRP	-0.185
RRIRIRPPRLPRPRPRPAFNPRP	-0.0935
RRIRARPPRLPRPRPRPDFRPRP	0.0149
RRIRFRPPRLPRPRPRPLYIPRP	-0.63
RRIRHRPPRLPRPRPRPTRIPRP	-0.0296
RRIRDRPPRLPRPRPRPFTSPRP	-0.0273
RRIRHRPPRLPRPRPRPIRNPRP	-0.387
RRIRHRPPRLPRPRPRPKIQPRP	-0.484
RRIRFRPPRLPRPRPRPMWGPRP	-0.136
RRIRHRPPRLPRPRPRPRPNPRP	0.321
RRIRQRPPRLPRPRPRPHKFPRP	-0.279
RRIRFRPPRLPRPRPRPTEGPRP	-0.289
RRIRQRPPRLPRPRPRPLNLPRP	-0.249

Sequence	shrunken log2 fold change
RRIRGRPPRLPRPRPRPDPDPRP	0.776
RRIRIRPPRLPRPRPRPWTAPRP	-0.307
RRIRVRPPRLPRPRPRPWRQPRP	0.2
RRIRGRPPRLPRPRPRPCFCPRP	0.609
RRIRNRPPRLPRPRPRPLPCPRP	-0.207
RRIRERPPRLPRPRPRPCMPPRP	0.0888
RRIRNRPPRLPRPRPRPKSWPRP	0.432
RRIRQRPPRLPRPRPRPEPHPRP	0.0864
RRIRRRPPRLPRPRPRPCLAPRP	0.242
RRIRWRPPRLPRPRPRPPMNPRP	-0.0715
RRIRTRPPRLPRPRPRPACCPRP	0.263
RRIRARPPRLPRPRPRPMPFPRP	0.263
RRIRVRPPRLPRPRPRPWDPPRP	-0.301
RRIRMRPPRLPRPRPRPCGGPRP	1.19
RRIRIRPPRLPRPRPRPYKMPRP	-0.889
RRIRPRPPRLPRPRPRPQPVPRP	0.212
RRIRWRPPRLPRPRPRPRYIPRP	-0.665
RRIRRRPPRLPRPRPRPGMVPRP	0.308
RRIRWRPPRLPRPRPRPAMPPRP	0.446
RRIRWRPPRLPRPRPRPHNWPRP	0.0898
RRIRPRPPRLPRPRPRPKRMPRP	0.139
RRIRKRPPRLPRPRPRPFSVPRP	0.034

Sequence	shrunken log2 fold change
RRIRFRPPRLPRPRPRPEEIPRP	0.0025
RRIRERPPRLPRPRPRPTFCPRP	-0.0701
RRIRRRPPRLPRPRPRPNRKPRP	0.105
RRIRNRPPRLPRPRPRPQPVPRP	0.0704
RRIRYRPPRLPRPRPRPCRHPRP	-0.394
RRIRMRPPRLPRPRPRPQRKPRP	0.605
RRIRIRPPRLPRPRPRPETHPRP	-0.413
RRIRWRPPRLPRPRPRPVPEPRP	0.634
RRIRDRPPRLPRPRPRPMDWPRP	0.0545
RRIRARPPRLPRPRPRPWFNPRP	-0.142
RRIRGRPPRLPRPRPRPCEDPRP	0.0133
RRIRERPPRLPRPRPRPLIPPRP	-0.463
RRIRCRPPRLPRPRPRPSQGPRP	-0.137
RRIRCRPPRLPRPRPRPKDCPRP	-0.0763
RRIRLRPPRLPRPRPRPMTMPRP	0.024
RRIRPRPPRLPRPRPRPTRRPRP	0.591
RRIRKRPPRLPRPRPRPMRGPRP	0.874
RRIRMRPPRLPRPRPRPNGIPRP	0.0753
RRIRPRPPRLPRPRPRPYFLPRP	-0.614
RRIRGRPPRLPRPRPRPESLPRP	0.595
RRIRVRPPRLPRPRPRPCMNPRP	-0.31
